Test: soluble on expression in E. coli; label from the status in PepcDB or PDB records

Row | Sequence | soluble on expression in E. coli
1 | MSLDDYTVRVRVPGGEWKDLFEYNVQVDMDRVQDASMVQFDMGSLVEVMVKKNNGTIHEVDIRPQVNDIRYVQYKNVITFMLDKPRYLSVEFNGDRLHNLHVFANPMETETYSKEEKGVMYFGPGVHRPKDLPNNQIRIPSNTTVYLAPGAVVKAKLWVDKAENVRIVGRGILDHPIRGIEITDSKNVVVDGITVINPDHYTVFGGGSVGVTIRNLKSFSCKGWSDGIDMMCCHDVLIDNVFMRNSDDCIALYNHRWNWWGGSDNITVQNSILWADIAHPINVGGHGDPESLIGETIENLIFRNIDILEHDEDDVPYQGCMAIDAGDRNRVKNILFEDIRVESIQEGKLFHINIRFNPKYDKQPGQSIDGVTFRNITYNGVGENPSLIKGLDKERMVRNITFENVVVNGEKIKDLKGFITNEYIEGIKIKEGHHHHHH | not soluble
2 | MEYQHWLREAISQLQASESPRRDAEILLEHVTGRGRTFILAFGETQLTDEQCQQLDALLTRRRDGEPIAHLTGVREFWSLPLFVSPATLIPRPDTECLVEQALARLPEQPCRILDLGTGTGAIALALASERPDCEIIAVDRMPDAVSLAQRNAQHLAIKNIHILQSDWFSALAGQQFAMIVSNPPYIDEQDPHLQQGDVRFEPLTALVAADSGMADIVHIIEQSRNALVSGGFLLLEHGWQQGEAVRQAFILAGYHDVETCRDYGDNERVTLGRYYQ | soluble
3 | SILELAEYTYFPPTLMASLILKNCDFSRKSINWLFKHLDCIENRRLRKEVRKALNADYFFSPRAHEMQCRKGEMGEEIVRKWLDDREIAYCTEAEIRAKGDGKTPDFVLSNPIFIEDHMVSWIESKALFGDDFEHKHYAKKQFREYADIFGEGMVVYWYGFLEDLSSEDEGYLIKDYRFFEGYQEQTDEL | soluble
4 | MAHHHHHHMFRGRIELIIGPMFAGKTTELMRRVKREIHARRSCFVIKYSKDTRYDEHNVASHDQLMLRAQAAVSQLTEVRDTWKRFDVLAIDEGQFFSDLVDFCNTAADAGKVVMVSALDGDYRRKPFGQICELVPYCEAVDKLTAVCMMCHEQPACFTRRTVNVEQQELIGGADMYIATCRECYSKQQLPSIEEMRTQRMAIKEVEKRYLGLSDKRATASPQTPEKPAGGWCTKAGVATLPTMVKEGAASSGASAGMKSGRGLCEMQAFTTETPKYQRVEPACTASAASSE | soluble
5 | MFSCISPQKSPAFSPEQEKMLKSNRANEPQSFVKGNDAAKSDLIDLEEVVTNWAKTMFDVTKSKAEGKIKKKYLSYNINWTKLFQECSEPTYTILGAKPNVVDAKQDEKVIFKTTFTNTTQREQEYSFKTERCTRSSSTVIIEKGVCRGAEVSLKLKTPCEVVEANAGFTTEVMLNHIGENTSEEELTWGVDSCVKVPPGAETVAELVIIEDIVTRDFRIENRLSGKVLVTITNLKENNSLVTIIEGNICDIIRGMPDYTAKGFRFDGPAAIYETRGQCIFRFGIEQKVRINEFSLNSSRRY | not soluble
6 | KVGFKIGGGMEYGFNEIWSLQPSLFVSSKGAKKDELSVNAVYLELPVMAAARFKVADNTNIVLSAGPYFACGIAGNSKVDLGKGRLEVDTFGDDGLLKRGDVGLGIGVAAEFGKIIAGLDGQFGFVDVMDNVNGKNLNLSISVGYKF | not soluble
7 | MKKIIALMLFLTFFAHANDSEPGSQYLKAAEAGDRRAQYFLADSWFSSGDLSKAEYWAQKAADSGDADACALLAQIKITNPVSLDYPQAKVLAEKAAQAGSKEGEVTLAHILVNTQAGKPDYPKAISLLENASEDLENDSAVDAQMLLGLIYANGVGIKADDDKATWYFKRSSAISRTGYSEYWAGMMFLNGEEGFIEKNKQKALHWLNLSCMEGFDTGCEEFEKLTNGLEHHHHHH | not soluble
8 | SPPENRGEHETGRTLHIATYNIHKGLSFFNQRLILHELRDQLHGLDVDVVFLQEVVGEHALHATRFRDWPRNTQYEFLADSMWPDFAYGKNAVYGHGHHGNAILSRFSIVNWENEDISAHRFESRGLLHCELAIPGWKDTLHCICVHLGLFRRGRSQQLEAIEKRIRQLVSPDAPLVVAGDFNDWRGAANPLLASRLNLVEVFQHTHGKAARSFPSVLPLLRLDRIYIRGFQVKNAQILHNRPWSRISDHAVLSANIMRT | not soluble
9 | PIVGRIIHIENQQLNEYTGNYSSFENQRAQKMMLQQAMFEKQQKQMSHMQSYIDRFRYKASKARQAQSRIKALERMEKVLPAQFDNPFSFEFRQPAALPNPIMMMDDVSAGYGDNLILEKIRLNLVP | not soluble
10 | MGSDKIHHHHHHMISDLESLGIDFKDEGENYVPKKDYSGNLVAKYVFDSNGISTDNITLKDLSGHGYDGTMSGVSIKDDSELGKCAYFNGSASVNFNNQIIPKGNKTIIITFKKDSGTQSNGQYEFLIEQGSGQGESITSWSIRFDSYKTACLNNLYFCNDDSKINMLNSHPAVFNVCDGKKHTAIFNYYDNKTNNTYCDSLKAHVCSFDFNGGEYRTADNSIIGQKYVGYIKSIEIYDDVVEFNSISTGTSLNKNIDQLIIGQTDNLVATIMPEDVTDKSVIWSSSDPSIVAVDENGKITALKVGEVSITVTTNDGSNLSQTCMVAVIDTTIPDKACLNISMTNGQVKQYYVGMDLVNKFISWYKLRSAGSEEPFYEFDITQLSEPGILRHDYVVFNKISSFTVDDYVK | not soluble
11 | MKVTLPDFRRAGVLVVGDVMLDRYWYGPTCRISPEAPVPVVKVDTIEERPGGAANVAMNIASLGAVARLVGLTGIDDAARALICKLSEVRVRCDFVSVPTHPTITKLRVLSRNQQLIRLDFEEGFDGVDPTPIFERIQLALPQIGALVLSDYAKGALNSVQPMIQLARKANVPVLIDPKGSDFERYRGATLLTPNLSEFEAVVGRCKNEEELVNRGMQLVADFELSALLVTRSEQGMTLLQLGKPPLHLPTQAKEVFDVTGAGDTVIGVLAAALAAGNSLEESCFLANAAAGVVVGKLGTSTVSPIELENAIRGRAETGFGVMDEQQLKIAVAQARQRGEKVVMTNGIFDILHAGHVSYLANARKLGDRLIVAVNSDASTKRLKGEKRPVNPLEQRMVVLGALEAVDWVVPFEEDTPQRLIADILPDLLVKGGDYKPHEIAGSEEVWAAGGEVKVLNFEDGVSTTNIIQSIKNGRG | not soluble
12 | MAEIPLFPLSNALFPAGVLRLRVFEIRYLDMVRRCIADGSEFGVVVLEQGTEVRRPDGREVLARAGTMARIDHWEAPMPALLELACTGTGRFRLHACTQGKYGLWTGQAEPVPDDAPLEVPPELARSASALGRLIARLQREGVPPHIMPMAAPFRLDDCGWVADRWAEMLSLPPADKARLLLLPPLDRLREIDAVLAADGHALEHHHHHH | soluble
13 | MRGSTRDQNGTWEMESNENFEGYMKALDIDFATRKIAVRLTQTKVIDQDGDNFKTKTTSTFRNYDVDFTVGVEFDEYTKSLDNRHVKALVTWEGDVLVCVQKGEKENRGWKQWIEGDKLYLELTCGDQVCRQVFKKKLVPR | soluble
14 | MNVTVAPQDETLSARAGRVATIAAKHADDVDVTGRFPQEAVDALRRERLLGIQVPSSLGGEGASIQEIADICARLGQACSATAMIFAMHHIKLSSLVEHGVDSTWHPGFMRRVAGEQLLLGSATTEGGIGGNLRNSICAIEVEGDSCRLEKDATVISYGSNADAILITSRAHKDAAPADQVMTVFLKNQYTLEKTHVWDTLGMRGTCSDGFLFRGEAPAAQIFPKPFAEIAAQSMLASSHLLWSAVWYGIASDAVLRAQSFVRAAARKSPGTAPPGAIRLAEVSTKLQVVKSNIIAGIKAYEDTKSDPEKLMSMAFAVAMNNVKICSSETILEIIDHAMLVCGIMGYKNGTPYSLGRHLRDAHSARLMISNDRILGNSANLLLVHRQDTSLLG | soluble
15 | MQTFNRERLEFALDKRGCTQTKLAELLGITARQVRNYVKDEQIPDLNELANLLEFPVHFFTNDERLPELKSQAVSFRARSRTSKRLEKQALNHSITAFLLNDWLETEFTLSQAVLPDFSDISPEEAAQELRLEWGLGNEPIPNMITLLEVKGVRVFSLSLDTKDIDAFCTWYENHPFVFLNTQKSAERSRFDAAHELGHLIRDKYSMEHSKNSEITEDEPRDIIEKEANAFASAFLMPEAALRLYRHVPITIENLLKIKRRFGVSLVALAYRMHKLGMITDRMYIHNLCPLFAKKKYRTIEPEPMEREISSALRKMLTILKNDGIGIEQIAENLNVSPKDVADLTFGLVERDLNRYRKLRLVK | not soluble
16 | MVEKMNEEVMDSKELQVGDVVTGSVTKVEEKQVLVNVGYKTDGVIPISELANVHIEKASDVVELDQTLELKIIKLEEDDLVLSKRAVDAEKAWVELQEKFTSGHVFDVIVKDIVNGGLVVDLGVRGFIPASLVEVHYVEDFTDYKGKTLAVKIVELDREKNRVILSHKAVVELELDSKKKEAISSLKEGDVVEGTVQRLTDFGAFVNVGGVDGLVHISQISHERVEQPSEVLEQGQKVKVKVLSVDADTQRISLSIKAAQPGPWENVAGEIKAGDIREGVVKRLVTFGAFVEILPGVEGLVHVSQIANRHVKNPNEVLEMGQEVKVKVLEVHVAEKRISLSIKEALEENNVTEDYSQYEPNADSATFQLSDIIGEQLKKLKKLEHHHHHH | soluble
17 | GPGSMAPAVIEIHIPLDRIRNEEYATDDLLLNCLSKIGDTPEEDGLPLRTWILREAHQALIKSPKLRTVLVKPQTVKDKPTHFQICFDE | soluble
18 | AIAADSAVRGPPGMGGTSTDNMDSVVQGDRRPGSHKGFVEEMRFVAMRLHTRDQAKEGTLEESALPIQEWQPSQQDYLQFLVDSKHVYDFFENFMNQSQDNMFVNFRRTGLERVSALEEDLDWFRQRGFSIPKPEKPGVAYVEYLQSLVQDKPHALLCHWYNFYFAHTAGGRMIGRLMSKLLFDGHVFEFYKWEGDVKQILDQVRVKIDETARDWPREVKDECLKETGLSFSYSGTILGHLAKRG | soluble
19 | IGAVNYSIGANIATNKNKITNLGGSDNIIQTSSYIVKYILKKGESIGSFYGFKTDGLYTQADIDAGHYYTLSGVVPNAGDIKFVPQRDIEYKQEITDEDRTILGKDVPDFTYGVNLSLQYKGFEFSMFGQGISGTKVAFDVYGVHPFYHGQDSPRKYHLKRWTEENPNPHAAYPRIYSASSVHTTYNRNFSDYHLFDSDYFRFKTLSLGYTVPSATVKNWGLQSLKVYVTGENLFTVRADKKMEDFDPETAGGVIYTLGTKSVAFGVNISF | not soluble
20 | MGTVHARSMDSYPMYGRDLGVNTDDMEVMEAVQETKQEVLENKDVVVQHVNIEGLGRTKEDYLGYEISDVFTARNLVEVMRKSHEARQRLLRLGIFRDVEVVIDISEGADALPNGLDVTFEVTELKRLTGSYNTMVGNNEGSMVLGIKLPNMLGRGEKLTFQFSYGTKETSYGLSFFKPQSGYFERNFTVNLYKVTGQFPWSSLKETDRGVSTELSLPLWMTDHTLKWEGVWRELGCLARSASFAVREESGHTLKSALSHTMVVDTRNSAILPRKGALLRINQELAGYTGGDANFLKEDVELQLNKQFIWGSVLSASLWGGMIYPLGAQPTSIADRFYLGGPTSVRGFGMYSIGPQSEGDYLGGEAYWAGGLHLYTPLPFRSNKGGLADLFRTHFFLNAGNICNLNYGEGPRAHLQKLAECIRWSYGAGIILRLGNIARLELNYCFPMGVQSGDRICDGVQFGAGIRFL | soluble
21 | MSLDRGVQWVLMGAPGAWRHVFAERLSKLLEVPHISMGSLVRQELNPRSSLYKEIASAVNERKLVPKSVVFALLSKRLEEGYARGETGFILHGIPRTRFQAETLDQIAQIDLVVNLKCSEDHLVNRNETALPQQEFLGSMLHSPVAINARRESVGVYAQEVEEYYRKQRKLLDFHVGGATSADTWQGLLAALHLKQVNLTTSQKLTEGHHHHHH | not soluble

Source: the DeepSol protein solubility set
